Reference: article PMC3887192

These substances were tested against HLA A*0201-… (assay: SPR). Settings: 25 °C.
A Kd of 26 nM, a dG of -9.65 kcal/mol-1 and an other: Half-life of 1100 s were found for “ILA1 TCR ILA1α1 (CDR3 mutations, not printed)” in this work. A Kd of 2 nM was found for “ILA1 TCR ILA1α1β1 (CDR2&3 mutations, not printed)” in this work. A Kd of 3.1 nM was found for “ILA1 TCR ILA1α1β2 (CDR2&3 mutations, not printed)” in this work. A Kd of 9.5 nM was found for “ILA1 TCR ILA1β1 (CDR2 mutations, not printed)” in this work. A Kd of 9.1 nM was found for “ILA1 TCR ILA1β2 (CDR2 mutations, not printed)” in this work. A Kd of 1800 nM, a dG of -7.31 kcal/mol-1 and an other: Half-life of 2.4 s were found for “MEL5 TCR MEL5β1 (CDR2 mutations, not printed)” in this work. A Kd of 1300 nM, a dG of -7.49 kcal/mol-1 and an other: Half-life of 2.4 s were found for “MEL5 TCR MEL5β2 (CDR2 mutations, not printed)” in this work. A Kd of 850 nM, a dG of -7.72 kcal/mol-1 and an other: Half-life of 4.2 s were found for “MEL5 TCR MEL5β3 (CDR2 mutations, not printed)” in this work. A Kd of 1400 nM, a dG of -7.45 kcal/mol-1 and an other: Half-life of 3 s were found for “MEL5 TCR MEL5β4 (CDR2 mutations, not printed)” in this work. A Kd of 2100 nM, a dG of -7.22 kcal/mol-1 and an other: Half-life of 1.2 s were found for “MEL5 TCR MEL5β5 (CDR2&3 mutations, not printed)” in this work. A Kd of 210 nM, a dG of -8.49 kcal/mol-1 and an other: Half-life of 11.4 s were found for “MEL5 TCR MEL5β6 (CDR2&3 mutations, not printed)” in this work. A Kd of 540 nM, a dG of -7.97 kcal/mol-1 and an other: Half-life of 27.6 s were found for “MEL5 TCR MEL5β7 (CDR2&3 mutations, not printed)” in this work. A Kd of 170 nM, a dG of -8.61 kcal/mol-1 and an other: Half-life of 49.2 s were found for “MEL5 TCR MEL5β8 (CDR2&3 mutations, not printed)” in this work.
